Measurements reported in US20220089752A1 (University of California, published 2022).
Values belong to the molecule of their own block, whether it stands above or below them.

How the values were obtained:
[1] = target: activated leukocyte cell adhesion molecule (ALCAM) on human cell lines (human) (UniProt Q13740); experiment: cell-based or functional assay
[2] = target: ephrin type-A receptor 2 (EphA2) on cells (human) (UniProt P29317); experiment: cell-based or functional assay
[3] = target: T1, mouse recombinant EphA2-Fc fusion protein (mouse, UniProt Q03145 26-535, limits assumed); experiment: flow cytometry of yeast-displayed scFv with mouse recombinant EphA2-Fc, curve fit of normalized MFI (apparent KD)
T1 construct: also called mouse EphA2; not shown: Fc part
T1 sequence (Q03145 26-535 limits assumed): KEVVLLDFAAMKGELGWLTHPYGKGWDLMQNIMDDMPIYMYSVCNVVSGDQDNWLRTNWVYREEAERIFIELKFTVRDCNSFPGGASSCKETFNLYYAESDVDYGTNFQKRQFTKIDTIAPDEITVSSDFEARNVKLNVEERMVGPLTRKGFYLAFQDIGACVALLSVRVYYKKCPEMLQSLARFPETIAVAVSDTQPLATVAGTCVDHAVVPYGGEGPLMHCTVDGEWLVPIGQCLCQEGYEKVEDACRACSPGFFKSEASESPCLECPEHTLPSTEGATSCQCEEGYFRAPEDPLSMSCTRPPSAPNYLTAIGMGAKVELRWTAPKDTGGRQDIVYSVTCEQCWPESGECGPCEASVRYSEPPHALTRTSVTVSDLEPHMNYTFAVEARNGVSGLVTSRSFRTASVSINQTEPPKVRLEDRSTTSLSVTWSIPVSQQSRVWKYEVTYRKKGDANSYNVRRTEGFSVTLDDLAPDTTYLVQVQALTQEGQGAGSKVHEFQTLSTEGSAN
Description: (§1) In this experiment, RYRgerm is the germline version of RYR. The remaining samples were RYRgerm derivatives with high binding affinity. Apparent KD values were estimated by curve-fitting of normalized MFI values. FIG. 10B: Apparent KD measurement of four new EphA2 scFvs binding affinity to mouse recombinant EphA2-Fc fusion protein. Apparent KD values were estimated by curve-fitting of normalized MFI values.
(§2) This Example describes experiments performed to identify new versions of EphA2 binding scFv antibodies with improved binding affinity. The original EphA2 binding scFv RYR has been described previously in PCT/US2015/039741, in which EphA2 binding scFv RYR was named HCA-F1 and a germline version of RYR was named RYRgerm. To identify new versions of EphA2 binding scFv antibodies improved binding affinity for EphA2, yeast display mutagenesis libraries based on RYRgerm were generated and selected by FACS for higher affinity binders. Four new EphA2 scFvs with high binding affinity for EphA2 were identified and named […], RYRgerm_102919_15, RYRgerm_102919_22, and RYRgerm_102919_33, respectively. The amino acid sequences of VH and VL regions as well as the CDRs for these newly identified EphA2 scFvs are presented in Tables 4-5 and the Sequence Listing. In these eperiments, both human and mouse recombinant EphA2 proteins were used in selection to maintain cross-species binding. Apparent affinity was measured by flow cytometry for binding to both human and mouse EphA2.

recombinant human EphA2 [4] = target: T2, recombinant human EphA2 (human, UniProt P29317 25-534); experiment: flow cytometry of yeast-displayed scFv with human recombinant EphA2, curve fit of normalized MFI (apparent KD)
T2 construct: also called human recombinant EphA2 protein
T2 sequence (P29317 25-534 limits assumed): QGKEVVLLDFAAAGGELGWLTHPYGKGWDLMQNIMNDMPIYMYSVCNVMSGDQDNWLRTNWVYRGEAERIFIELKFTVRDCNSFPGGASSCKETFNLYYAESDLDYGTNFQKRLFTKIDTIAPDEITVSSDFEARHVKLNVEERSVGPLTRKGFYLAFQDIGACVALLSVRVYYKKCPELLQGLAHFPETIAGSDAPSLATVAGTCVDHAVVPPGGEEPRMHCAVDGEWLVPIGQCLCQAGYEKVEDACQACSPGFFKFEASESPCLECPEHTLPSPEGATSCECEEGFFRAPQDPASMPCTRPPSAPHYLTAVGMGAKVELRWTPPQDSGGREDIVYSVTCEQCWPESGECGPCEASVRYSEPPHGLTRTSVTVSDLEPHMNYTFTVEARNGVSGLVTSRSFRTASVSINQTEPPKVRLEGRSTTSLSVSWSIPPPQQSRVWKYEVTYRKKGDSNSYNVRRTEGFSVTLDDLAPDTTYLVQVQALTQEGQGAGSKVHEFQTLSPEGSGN
Description: as §1, with “FIGS. 10A-10B graphically illustrate the selection and characterization of anti-EphA2 scFvs from yeast display mutagenesis libraries. FIG. 10A: Apparent KD measurement of four new EphA2 scFvs binding affinity to human recombinant EphA2 protein. In” for “In”
as §2

recombinant human EphA2 [5] = target: T2, recombinant human EphA2; experiment: flow cytometry of yeast-displayed scFv with recombinant human EphA2 at 0-100 nM
Description: as §1
as §2, with “In these eperiments, both human and mouse recombinant EphA2 proteins were used in selection to maintain cross-species binding.” left out

[6] = target: T3, activated leukocyte cell adhesion molecule (ALCAM) on human cell lines (human, UniProt Q13740 28-583); experiment: FACS on live DU145 cells, 3F1 IgG at 4 C overnight, Alexa 647 anti-human IgG
T3 construct: whole, on cells
T3 sequence (looked up): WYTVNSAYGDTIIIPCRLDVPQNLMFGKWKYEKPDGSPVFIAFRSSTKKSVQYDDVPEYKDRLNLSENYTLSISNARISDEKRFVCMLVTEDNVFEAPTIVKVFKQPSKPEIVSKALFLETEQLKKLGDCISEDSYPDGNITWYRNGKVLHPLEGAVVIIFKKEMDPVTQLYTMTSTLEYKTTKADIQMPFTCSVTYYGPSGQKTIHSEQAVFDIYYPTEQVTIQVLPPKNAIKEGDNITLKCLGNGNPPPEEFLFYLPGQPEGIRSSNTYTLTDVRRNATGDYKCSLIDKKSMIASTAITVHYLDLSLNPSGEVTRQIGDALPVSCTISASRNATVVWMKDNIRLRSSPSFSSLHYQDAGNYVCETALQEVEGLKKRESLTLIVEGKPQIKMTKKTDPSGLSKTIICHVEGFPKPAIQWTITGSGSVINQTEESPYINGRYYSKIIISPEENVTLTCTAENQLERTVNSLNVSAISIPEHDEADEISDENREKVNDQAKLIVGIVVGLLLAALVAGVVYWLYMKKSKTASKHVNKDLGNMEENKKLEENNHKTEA
Procedure: (§3) FIGS. 6A-6D graphically illustrate the selection and characterization of anti-ALCAM scFvs from phage display library. FIG. 6A: Enrichment of ALCAM-binding phage through three rounds of selection. Recombinant Fc-fusion of ALCAM-V domain was immobilized on magnetic beads and utilized for scFv phage display library selection. Enrichment was calculated by dividing phage output titer by input phage titer (y-axis on the left). Binding activity of polyclonal phages amplified from each round output was described as folds against the binding of the unselected phage library (y-axis on the right). FIG. 6B: After three rounds of selection, FACS was performed to screen out monoclonal phage binding to the ALCAM^high DU145 cell line. FIG. 6C: Apparent KD of 3F1 IgG on live ALCAM-expressing cells. DU145 cells were incubated with varying concentrations of 3F1 IgG at 4° C. overnight and analyzed by FACS using Alexa® 647-conjugated anti-human IgG. KD value was estimated by curve fitting using GraphPad Prism (GraphPad Software). FIG. 6D: Confocal microscopy study of cellular localization of anti-ALCAM 3F1 IgG. Tumor cell lines were seeded in chamber-well slide and incubated with 3F1 IgG at 37° C. for 2 hours. Antibodies were stained with Alexa® 647-conjugated anti-human antibody (red). […] ALCAM expression measured using 3F1 IgG was shown below microscopic images (lower panel). […]

[7] = target: T3, activated leukocyte cell adhesion …; experiment: FACS titration of the IgG1 on live DU145 cells, curve fit (apparent KD)
Procedure: as §3

recombinant human EphA2 [8] = target: T2, recombinant human EphA2; experiment: BLI (Probe Life Gator), IgG1 on anti-human Fc probes, 100 nM recombinant human EphA2, 25 C
[9] = target: T4, ephrin type-A receptor 2 (EphA2) on cells (human, UniProt P29317 24-976); experiment: flow cytometry on DU145 cells, 1 h at 25 C, 40 pM to 125 nM, MFI curve fit (apparent KD)
T4 construct: whole, on cells
T4 sequence (P29317 24-976): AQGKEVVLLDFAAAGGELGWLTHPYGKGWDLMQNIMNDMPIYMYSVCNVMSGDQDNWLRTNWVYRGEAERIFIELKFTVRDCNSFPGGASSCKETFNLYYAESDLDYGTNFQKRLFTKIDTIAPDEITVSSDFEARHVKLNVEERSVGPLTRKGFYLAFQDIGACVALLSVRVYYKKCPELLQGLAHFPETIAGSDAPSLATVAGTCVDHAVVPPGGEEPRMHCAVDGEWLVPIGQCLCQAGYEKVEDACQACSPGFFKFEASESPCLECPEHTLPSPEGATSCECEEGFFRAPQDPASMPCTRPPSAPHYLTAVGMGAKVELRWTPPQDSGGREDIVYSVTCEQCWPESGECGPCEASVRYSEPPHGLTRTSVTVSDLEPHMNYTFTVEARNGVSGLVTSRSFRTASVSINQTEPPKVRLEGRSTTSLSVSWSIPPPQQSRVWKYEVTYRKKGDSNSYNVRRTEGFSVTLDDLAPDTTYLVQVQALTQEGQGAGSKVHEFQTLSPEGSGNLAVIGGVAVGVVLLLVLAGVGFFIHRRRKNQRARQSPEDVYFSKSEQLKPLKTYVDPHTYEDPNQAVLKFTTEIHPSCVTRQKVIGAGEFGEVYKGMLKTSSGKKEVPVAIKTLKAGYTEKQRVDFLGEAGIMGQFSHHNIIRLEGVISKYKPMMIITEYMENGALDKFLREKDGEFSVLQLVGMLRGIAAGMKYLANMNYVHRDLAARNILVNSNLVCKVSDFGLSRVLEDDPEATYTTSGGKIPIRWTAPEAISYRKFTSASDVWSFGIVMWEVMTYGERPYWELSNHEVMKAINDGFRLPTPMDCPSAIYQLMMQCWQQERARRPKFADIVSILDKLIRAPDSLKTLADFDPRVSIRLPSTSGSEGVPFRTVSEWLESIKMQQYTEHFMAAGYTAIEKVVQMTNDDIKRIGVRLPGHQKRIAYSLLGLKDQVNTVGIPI
Procedure: (§4) In these experiments, apparent binding affinity of RYR IgG1 versus RYRgerm_102919_15 IgG1 on DU145 cells was evaluated. In these experiments, DU145 cells were incubated for 1 h at 25° C. with RYR or RYRgerm_102919_15 at a range of concentrations between 40 pM to 125 nM, washed, and binding detected with anti-human Alexa Fluor 647. MFI values were curve-fit to generate the apparent KD values.

[10] = target: T4, ephrin type-A receptor 2 (EphA2) on …; experiment: flow cytometry on DU145 cells (apparent KD)
Procedure: as §4

Chain of ephrin type-A receptor 2 (EphA2) on cells (human) (P29317 24-976): as above

B1: RYRgerm_102919_22 scFv (scFv)
scFv: EVQLVESGGGLVQPGGSLRLSCAASGFTFSSYSMNWVRQAPGKGLEWVSYISSSSSTIYYADSVKGRFTISRDNAKNSLYLQMNSLRAEDTAVYYCARYRLPNFWSGYPNYGMDVWGQGTTVTVSSGGGGSGGGGSGGGGSQSVLTQPPSVSGAPGQRVTISCTGSSSNIGAGYDVHWYQQLPGTAPKLLIYGNSNRPSGVPDRFSGSKSGTSASLAITGLQAEDEADYYCQSYDSSLSGHVVFGGGTKLTVL
Kd [3]: 1.34 nM
Kd (recombinant human EphA2 [4]): 28.1 nM

B2: RYRgerm scFv (scFv)
chain: EVQLVESGGGLVQPGGSLRLSCAASGFTFSSYSMNWVRQAPGKGLEWVSYISSSSSTIYYADSVKGRFTISRDNAKNSLYLQMNSLRAEDTAVYYCARYRLPDFWSGYPNYGMDVWGQGTTVTVSSGGGGSGGGGSGGGGSQSVLTQPPSVSGAPGQRVTISCTGSSSNIGAGYDVHWYQQLPGTAPKLLIYGNSNRPSGVPDRFSGSKSGTSASLAITGLQAEDEADYYCQSYDSSLSGHVVFGGGTKLTVL
Kd [3]: 115 nM
Kd (recombinant human EphA2 [4]): 355 nM

B5: RYRgerm_102919_14 scFv (scFv)
scFv: EVQLVESGGGLVQPGGSLRLSCAASGFTSSSYSMNWVRQAPGKGLEWVSYISSSSSTIYYADSVKGRFTISRDNAKNSLYLQMNSLRAEDTAVYYCARYRLPNFWSGYPNYGMDVWGQGTTVTVSSGGGGSGGGGSGGGGSQSVLTQPPSVSGAPGQRVTISCTGSSSNIGAGYDVHWYQQLPGTAPKLLIYGNSNRPSGVPDRFSGSKSGTSASLAITGLQAEDEADYYCQSYDSSLSGHVVFGGGTKLTVL
notes: also called RYRgerm_102019_14
Kd [3]: 2.12 nM
Kd (recombinant human EphA2 [4]): 21.3 nM

B7: RYR IgG1 (antibody, V domains shown)
VH: QVQLQESGGGLVQPGGSLRLSCAASGFTFSSYSMNWVRQAPGKGLEWVSYISSSSSTIYYADSVKGRFTISRDNAKNSLYLQMNSLRAEDTAVYYCARYRLPDFWSGYPNYGMDVWGQGTTVTVSS
VL: QSVLTQPPSVSGAPGQRVTISCTGSSSNIGAGYDVHWYQQLPGTAPKLLIYGNSNRPSGVPDRFSGSKSGTSASLAITGLQAEDEADYYCQSYDSSLSGHVVFGGGT
notes: Recombinant human IgG1 built from the original EphA2 scFv RYR; also called original RYR; HCA-F1
Kd (recombinant human EphA2 [8]): ~28 nM
koff (recombinant human EphA2 [8]): 0.0145 s⁻¹
kon (recombinant human EphA2 [8]): 518000 M⁻¹ s⁻¹
Kd [9]: 23.7 nM

Results, then the molecule that gave them:

ALCAM Internalization (% over ctrl, Mean, n = 2); HEK293-EphA2#2 cells [1]: 14.6 % over ctrl
ALCAM Internalization (% over ctrl, Mean, n = 2); HEK293-EphA2#8 cells [1]: 0.5 % over ctrl
ALCAM Internalization (% over ctrl, Mean, n = 2); HEK293-EphA2#31 cells [1]: 9.2 % over ctrl
ALCAM Internalization (% over ctrl, Mean, n = 2); HEK293-EphA2#42 cells [1]: -16.5 % over ctrl
ALCAM Internalization (% over ctrl, Mean, n = 2); HEK293-EphA2#C9 cells [1]: -9.6 % over ctrl
ALCAM Internalization (% over ctrl, Mean, n = 2); HEK293-EphA2-0.02 cells [1]: 28.6 % over ctrl
ALCAM Internalization (% over ctrl, Mean, n = 2); HEK293-EphA2-0.1 cells [1]: -22.4 % over ctrl
ALCAM Internalization (% over ctrl, Mean, n = 2); HEK293-EphA2-0.5 cells [1]: -36.3 % over ctrl
ALCAM Internalization (% over ctrl, Mean, n = 2); HEK293-EphA2-2.5 cells [1]: 7.1 % over ctrl
ALCAM Internalization (% over ctrl, Mean, n = 2); HEK293-SiRNA2 cells [1]: -6 % over ctrl
ALCAM Internalization (% over ctrl, Mean, n = 2); HEK293-siRNA1 cells [1]: -3.4 % over ctrl
ALCAM Internalization (% over ctrl, Mean, n = 2); HEK293-siRNA3 cells [1]: -4.4 % over ctrl
ALCAM Internalization (% over ctrl, Mean, n = 2); HEK293 cells [1]: 10.8 % over ctrl
surface EphA2 removed from pancreatic cancer cells (FACS) [2]: 85%
Molecule: control C10/RYR bsIgG (bispecific antibody)

EC50 (read off the curve) (recombinant human EphA2 [5]): ~5 nM
Kd [3]: 2.01 nM
Kd (recombinant human EphA2 [4]): 5.58 nM
B3: RYRgerm_102919_15 scFv (scFv)
scFv: EVQLVESGGGLVQPGGSLRLSCAASGFTFSSYSMNWVRQAPGKGLEWVSYISSSSSTIYYADSVKGRFTISRDNAKNSLYLQMNSLRAEDTAVYYCARYRLPNFWSGYPNYGTDVWGQGTTVTVSSGGGGSGGGGSGGGGSQSVLTQPPSVSGAPGQRVTISCTGSSSNIGAGYDVHWYQQLPGTAPKLLIYGNSNRPSGVPDRFSGSKSGTSASLAITGLQAEDEADYYCQSYDSSLSGHVVFGGGTKLTVL

Kd [3]: 2.87 nM
Kd (recombinant human EphA2 [4]): 42.5 nM
B4: RYRgerm_102919_33 scFv (scFv)
scFv: EVQLVESGGGLVQPGGSLRLSCAASGFTFSSYSMNWVRQAPGKGLEWVSYISSSSSTIYYADSVKGRFTISRDNAKNSLYLQMNSLRAEDTAVYYCARYRFPDFWSGYPNYGMDVWGQGTTVTVSSGGGGSGGGGSGGGGSQSVLTQPPSVSGAPGQRVTISCTGSSSNIGAGYDVHWYQQLPGTAPKLLIYGNSNRPSGVPDRFSGSKSGTSASLAITGLQAEDEADYYCQSYDSSLSGHVVFGGGTKLTVL

EC50 (read off the curve) [6]: ~0.02 nM
Kd [7]: 0.0206 nM
B6: anti-ALCAM 3F1 IgG1 (antibody, V domains shown)
VH: EVQLVESGGGLVKPGGSLRLSCAASGFTLSDYSMNWVRQAPGKGLEWVASISSRSSYIYYADSVKGRFTISRDNAKNSLYLGMNSLRAEDTAVYYCTGGQGYSGYDGFQHWGQGTLVTVSS
VL: QSALTQPPSASGTPGQRVTISCSGSSSNIGSNSVSWYQQLPGTAPKLLIYSNTHRPSGVPDRFSGSKSGTSASLAISGLLSEDEADYYCASWDDSLNGGVFGGGTQLTVL
notes: also called anti-ALCAM mAb 3F1

fold increase in binding affinity against RYR IgG1 [10]: ~100 fold
Kd (recombinant human EphA2 [8]): ~5 nM
fold increase in binding affinity against RYR IgG1 (recombinant human EphA2 [8]): ~5 fold
koff (recombinant human EphA2 [8]): 0.00132 s⁻¹
kon (recombinant human EphA2 [8]): 262000 M⁻¹ s⁻¹
Kd [9]: 0.23 nM
B8: RYRgerm_102919_15 IgG1 (antibody, V domains shown)
VH: EVQLVESGGGLVQPGGSLRLSCAASGFTFSSYSMNWVRQAPGKGLEWVSYISSSSSTIYYADSVKGRFTISRDNAKNSLYLQMNSLRAEDTAVYYCARYRLPNFWSGYPNYGTDVWGQGTTVTVSS
VL: QSVLTQPPSVSGAPGQRVTISCTGSSSNIGAGYDVHWYQQLPGTAPKLLIYGNSNRPSGVPDRFSGSKSGTSASLAITGLQAEDEADYYCQSYDSSLSGHVVFGGGTKLTVL
notes: Recombinant human IgG1 built from the scFv RYRgerm_102919_15
